The target in the test is drosophila GABAB2 subunit, EM construct (residues 24–790) (Drosophila melanogaster) (UniProt Q9BML6).
Chain of drosophila GABAB2 subunit, EM construct (residues 24–790) (Drosophila melanogaster) (Q9BML6 entry or part of it): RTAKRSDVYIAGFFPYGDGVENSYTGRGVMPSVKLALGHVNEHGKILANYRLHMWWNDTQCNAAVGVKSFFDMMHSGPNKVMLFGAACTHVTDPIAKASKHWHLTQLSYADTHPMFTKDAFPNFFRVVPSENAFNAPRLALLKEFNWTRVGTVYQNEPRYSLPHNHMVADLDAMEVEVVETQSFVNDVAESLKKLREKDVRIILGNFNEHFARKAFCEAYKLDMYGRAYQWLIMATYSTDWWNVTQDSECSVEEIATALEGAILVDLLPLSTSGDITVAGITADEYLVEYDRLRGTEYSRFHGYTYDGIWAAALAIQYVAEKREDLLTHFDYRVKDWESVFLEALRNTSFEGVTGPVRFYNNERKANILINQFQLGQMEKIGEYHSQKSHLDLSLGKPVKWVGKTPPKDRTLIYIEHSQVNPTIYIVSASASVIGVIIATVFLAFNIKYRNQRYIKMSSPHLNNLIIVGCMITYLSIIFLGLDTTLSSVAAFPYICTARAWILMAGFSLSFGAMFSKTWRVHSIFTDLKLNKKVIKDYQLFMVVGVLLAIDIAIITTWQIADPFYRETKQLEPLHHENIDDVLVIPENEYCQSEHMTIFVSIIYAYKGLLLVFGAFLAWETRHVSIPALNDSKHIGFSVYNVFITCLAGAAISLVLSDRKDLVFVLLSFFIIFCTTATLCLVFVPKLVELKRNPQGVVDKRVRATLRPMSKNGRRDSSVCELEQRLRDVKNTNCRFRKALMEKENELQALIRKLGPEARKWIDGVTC

For the substance “dGB1^I (V658L) (from UniProt Q9BML7 1-840) (receptor)”, the basal IP1 accumulation (constitutive activity), HEK293 cells co-transfected with the dGB1 mutant and wild-type dGB2, against the wild-type receptor (% increase in IP1 accumulation) worked out at 50.

The substance “dGB1^I-II (V658L, F659L) (from UniProt Q9BML7 1-840) (receptor)” had a basal IP1 accumulation (constitutive activity), HEK293 cells co-transfected with the dGB1 mutant and wild-type dGB2, against dGB1^III (% increase in IP1 accumulation) of 17.

In turn, “dGB1^I-II-III (V658L, F659L, E666A, H566A) (from UniProt Q9BML7 1-840) (receptor)” registered a basal IP1 accumulation (constitutive activity), HEK293 cells co-transfected with the dGB1 mutant and wild-type dGB2, against dGB1^III (% increase in IP1 accumulation) of 22.

As for “dGB1^II (F659L) (from UniProt Q9BML7 1-840) (receptor)”, the basal IP1 accumulation (constitutive activity), HEK293 cells co-transfected with the dGB1 mutant and wild-type dGB2, against the wild-type receptor (% increase in IP1 accumulation) is 66.

For the substance “dGB1^III (E666A and H566A) (from UniProt Q9BML7 1-840) (receptor)”, the basal IP1 accumulation (constitutive activity), HEK293 cells co-transfected with the dGB1 mutant and wild-type dGB2, against the wild-type receptor (% increase in IP1 accumulation) was determined as 59.

(Values after PMC12499500.)
